Reference: the supplement of paper PMC5998384

Key:
[1] = tested on: HeLa Kyoto; assay: solubility change mitosis vs G1/S (difference of NP-40 vs SDS log2 ratios) (log2 ratio difference); higher = more soluble in mitosis
[2] = tested on: HeLa Kyoto; assay: thermal stability score vs G1/S (z-score of summed log2 fold changes over temperatures); higher = more thermally stable than in G1/S
[3] = tested on: HeLa Kyoto; assay: solubility in G1/S (NP-40 vs SDS abundance) (log2 ratio); higher = more soluble; conditions: cell cycle stage: G1/S
[4] = cell cycle stage: early G1 (4.5 h after nocodazole release)
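Wherever solubility change mitosis vs G1/S (difference of NP-40 vs SDS log2 ratios) is given: synchronized HeLa Kyoto cells (double thymidine block for G1/S, nocodazole release for mitosis), protein amounts in NP-40 versus SDS lysates quantified by mass spectrometry, three biological replicates.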
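Wherever solubility in G1/S (NP-40 vs SDS abundance) is given: HeLa Kyoto cells arrested at G1/S by double thymidine block, proteins quantified by TMT10plex mass spectrometry in mild NP-40 versus SDS extracts, three biological replicates.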
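Wherever thermal stability score vs G1/S (z-score of summed log2 fold changes over temperatures) is given: synchronized HeLa Kyoto cells, proteins quantified by TMT10plex mass spectrometry, three biological replicates, mitosis taken 0.5 h after nocodazole release, G1/S directly after double thymidine block.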

## MAKREDSPGPEVQPMDKQFLVCSICLDRYQCPKVLPCLHTFCERCLQNYIPAQSLTLSCPVCRQTSILPEQGVSALQNNFFISSLMEAMQQAPDGAHDPEDPHPLSVVAGRPLSCPNHEGKTMEFYCEACETAMCGECRAGEHREHGTVLLRDVVEQHKAALQRQLEAVRGRLPQLSAAIALVGGISQQLQERKAEALAQISAAFEDLEQALQQRKQALVSDLETICGAKQKVLQSQLDTLRQGQEHIGSSCSFAEQALRLGSAPEVLLVRKHMRERLAALAAQAFPERPHENAQLELVLEVDGLRRSVLNLGALLTTSATAHETVATGEGLRQALVGQPASLTVTTKDKDGRLVRTGSAELRAEITGPDGTRLPVPVVDHKNGTYELVYTARTEGELLLSVLLYGQPVRGSPFRVRALRPGDLPPSPDDVKRRVKSPGGPGSHVRQKAVRRPSSMYSTGGKRKDNPIEDELVFRVGSRGREKGEFTNLQGVSAASSGRIVVADSNNQCIQVFSNEGQFKFRFGVRGRSPGQLQRPTGVAVDTNGDIIVADYDNRWVSIFSPEGKFKTKIGAGRLMGPKGVAVDRNGHIIVVDNKSCCVFTFQPNGKLVGRFGGRGATDRHFAGPHFVAVNNKNEIVVTDFHNHSVKVYSADGEFLFKFGSHGEGNGQFNAPTGVAVDSNGNIIVADWGNSRIQVFDSSGSFLSYINTSAEPLYGPQGLALTSDGHVVVADAGNHCFKAYRYLQ [TRIM3]
[1]
  solubility change mitosis (log2): -0.138
[2]; [4]
  thermal stability score: 0.13
[2]; cell cycle stage: mitosis
  thermal stability score: 0.0555
[3]
  solubility in G1/S (log2): -0.0387

## MAPARLFALLLFFVGGVAESIRETEVIDPQDLLEGRYFSGALPDDEDVVGPGQESDDFELSGSGDLDDLEDSMIGPEVVHPLVPLDNHIPERAGSGSQVPTEPKKLEENEVIPKRISPVEESEDVSNKVSMSSTVQGSNIFERTEVLAALIVGGIVGILFAVFLILLLMYRMKKKDEGSYDLGKKPIYKKAPTNEFYA [SDC4]
[1]
  solubility change mitosis (log2): 0.235
[2]; [4]
  thermal stability score: 2.66
[2]; cell cycle stage: mitosis
  thermal stability score: 4.92
[3]
  solubility in G1/S (log2): -0.523

## MAQVSINNDYSEWDLSTDAGERARLLQSPCVDTAPKSEWEASPGGLDRGTTSTLGAIFIVVNACLGAGLLNFPAAFSTAGGVAAGIALQMGMLVFIISGLVILAYCSQASNERTYQEVVWAVCGKLTGVLCEVAIAVYTFGTCIAFLIIIGDQQDKIIAVMAKEPEGASGPWYTDRKFTISLTAFLFILPLSIPREIGFQKYASFLSVVGTWYVTAIVIIKYIWPDKEMTPGNILTRPASWMAVFNAMPTICFGFQCHVSSVPVFNSMQQPEVKTWGGVVTAAMVIALAVYMGTGICGFLTFGAAVDPDVLLSYPSEDMAVAVARAFIILSVLTSYPILHFCGRAVVEGLWLRYQGVPVEEDVGRERRRRVLQTLVWFLLTLLLALFIPDIGKVISVIGGLAACFIFVFPGLCLIQAKLSEMEEVKPASWWVLVSYGVLLVTLGAFIFGQTTANAIFVDLLA [SLC38A7]
[1]
  solubility change mitosis (log2): -0.113
[2]; [4]
  thermal stability score: -4.08
[2]; cell cycle stage: mitosis
  thermal stability score: -4.26
[3]
  solubility in G1/S (log2): -0.213

## MATLVELPDSVLLEIFSYLPVRDRIRISRVCHRWKRLVDDRWLWRHVDLTLYTMRPKVMWHLLRRYMASRLHSLRMGGYLFSGSQAPQLSPALLRALGQKCPNLKRLCLHVADLSMVPITSLPSTLRTLELHSCEISMAWLHKQQDPTVLPLLECIVLDRVPAFRDEHLQGLTRFRALRSLVLGGTYRVTETGLDAGLQELSYLQRLEVLGCTLSADSTLLAISRHLRDVRKIRLTVRGLSAPGLAVLEGMPALESLCLQGPLVTPEMPSPTEILSSCLTMPKLRVLELQGLGWEGQEAEKILCKGLPHCMVIVRACPKESMDWWM [FBXL12]
[1]
  solubility change mitosis (log2): -0.183
[2]; [4]
  thermal stability score: -0.861
[2]; cell cycle stage: mitosis
  thermal stability score: -0.543
[3]
  solubility in G1/S (log2): -0.129

## MAVSERRGLGRGSPAEWGQRLLLVLLLGGCSGRIHQLALTGEKRADIQLNSFGFYTNGSLEVELSVLRLGLREAEEKSLLVGFSLSRVRSGRVRSYSTRDFQDCPLQKNSSSFLVLFLINTKDLQVQVRKYGEQKTLFIFPGLLPEAPSKPGLPKPQATVPRKVDGGGTSAASKPKSTPAVIQGPSGKDKDLVLGLSHLNNSYNFSFHVVIGSQAEEGQYSLNFHNCNNSVPGKEHPFDITVMIREKNPDGFLSAAEMPLFKLYMVMSACFLAAGIFWVSILCRNTYSVFKIHWLMAALAFTKSISLLFHSINYYFINSQGHPIEGLAVMYYIAHLLKGALLFITIALIGSGWAFIKYVLSDKEKKVFGIVIPMQVLANVAYIIIESREEGASDYVLWKEILFLVDLICCGAILFPVVWSIRHLQDASGTDGKVAVNLAKLKLFRHYYVMVICYVYFTRIIAILLQVAVPFQWQWLYQLLVEGSTLAFFVLTGYKFQPTGNNPYLQLPQEDEEDVQMEQVMTDSGFREGLSKVNKTASGRELL [GPR108]
[1]
  solubility change mitosis (log2): -0.16
[2]; [4]
  thermal stability score: -3.36
[2]; cell cycle stage: mitosis
  thermal stability score: -3.48
[3]
  solubility in G1/S (log2): 0.04

## MDANSKDKPPETKESAMNNAGNASFILGTGKIVTPQKHAELPPNPCTPDTFKSPLNFSTVTVEQLGITPESFVRNSAGKSSSYLKKCRRRSAVGARGSPETNHLIRFIARQQNIKNARKSPLAQDSPSQGSPALYRNVNTLRERISAFQSAFHSIKENEKMTGCLEFSEAGKESEMTDLTRKEGLSACQQSGFPAVLSSKRRRISYQRDSDENLTDAEGKVIGLQIFNIDTDRACAVETSVDLSEISSKLGSTQSGFLVEESLPLSELTETSNALKVADCVVGKGSSDAVSPDTFTAEVSSDAVPDVRSPATPACRRDLPTPKTFVLRSVLKKPSVKMCLESLQEHCNNLYDDDGTHPSLISNLPNCCKEKEAEDEENFEAPAFLNMRKRKRVTFGEDLSPEVFDESLPANTPLRKGGTPVCKKDFSGLSSLLLEQSPVPEPLPQPDFDDKGENLENIEPLQVSFAVLSSPNKSSISETLSGTDTFSSSNNHEKISSPKVGRITRTSNRRNQLVSVVEESVCNLLNTEVQPCKEKKINRRKSQETKCTKRALPKKSQVLKSCRKKKGKGKKSVQKSLYGERDIASKKPLLSPIPELPEVPEMTPSIPSIRRLGSGYFSSNGKLEEVKTPKNPVKRKDLLRHDPDLHMHQGYDKYDVSEFCSYIKSSSSLGNATSDEDPNTNIMNINENKNIPKAKNKSESENEPKAGTDSPVSCASVTEERVASDSPKPALTLQQGQEFSAGGQNAENLCQFFKISPDLNIKCERKDDFLGAAEGKLQCNRLMPNSQKDCHCLGDVLIENTKESKSQSEDLGRKPMESSSVVSCRDRKDRRRSMCYSDGRSLHLEKNGNHTPSSSVGSSVEISLENSELFKDLSDAIEQTFQRRNSETKVRRSTRLQKDLENEGLVWISLPLPSTSQKAKRRTICTFDSSGFESMSPIKETVSSRQKPQMAPPVSDPENSQGPAAGSSDEPGKRRKSFCISTLANTKATSQFKGYRRRSSLNGKGESSLTALERIEHNGERKQ [CDCA2]
[1]
  solubility change mitosis (log2): 0.243
[2]; [4]
  thermal stability score: 0.00387
[2]; cell cycle stage: mitosis
  thermal stability score: -1.54
[3]
  solubility in G1/S (log2): -0.581

## MDEETRHSLECIQANQIFPRKQLIREDENLQVPFLELHGESTEFVGRAEDAIIALSNYRLHIKFKESLVNVPLQLIESVECRDIFQLHLTCKDCKVIRCQFSTFEQCQEWLKRLNNAIRPPAKIEDLFSFAYHAWCMEVYASEKEQHGDLCRPGEHVTSRFKNEVERMGFDMNNAWRISNINEKYKLCGSYPQELIVPAWITDKELESVSSFRSWKRIPAVIYRHQSNGAVIARCGQPEVSWWGWRNADDEHLVQSVAKACASDSRSSGSKLSTRNTSRDFPNGGDLSDVEFDSSLSNASGAESLAIQPQKLLILDARSYAAAVANRAKGGGCECPEYYPNCEVVFMGMANIHSIRRSFQSLRLLCTQMPDPGNWLSALESTKWLHHLSVLLKSALLVVHAVDQDQRPVLVHCSDGWDRTPQIVALAKLLLDPYYRTIEGFQVLVEMEWLDFGHKFADRCGHGENSDDLNERCPVFLQWLDCVHQLQRQFPCSFEFNEAFLVKLVQHTYSCLFGTFLCNNAKERGEKHTQERTCSVWSLLRAGNKAFKNLLYSSQSEAVLYPVCHVRNLMLWSAVYLPCPSPTTPVDDSCAPYPAPGTSPDDPPLSRLPKTRSYDNLTTACDNTVPLASRRCSDPSLNEKWQEHRRSLELSSLAGPGEDPLSADSLGKPTRVPGGAELSVAAGVAEGQMENILQEATKEESGVEEPAHRAGIEIQEGKEDPLLEKESRRKTPEASAIGLHQDPELGDAALRSHLDMSWPLFSQGISEQQSGLSVLLSSLQVPPRGEDSLEVPVEQFRIEEIAEGREEAVLPIPVDAKVGYGTSQSCSLLPSQVPFETRGPNVDSSTDMLVEDKVKSVSGPQGHHRSCLVNSGKDRLPQTMEPSPSETSLVERPQVGSVVHRTSLGSTLSLTRSPCALPLAECKEGLVCNGAPETENRASEQPPGLSTLQMYPTPNGHCANGEAGRSKDSLSRQLSAMSCSSAHLHSRNLHHKWLHSHSGRPSATSSPDQPSRSHLDDDGMSVYTDTIQQRLRQIESGHQQEVETLKKQVQELKSRLESQYLTSSLHFNGDFGDEVTSIPDSESNLDQNCLSRCSTEIFSEASWEQVDKQDTEMTRWLPDHLAAHCYACDSAFWLASRKHHCRNCGNVFCSSCCNQKVPVPSQQLFEPSRVCKSCYSSLHPTSSSIDLELDKPIAATSN [MTMR3]
[1]
  solubility change mitosis (log2): -0.15
[2]; [4]
  thermal stability score: -0.332
[2]; cell cycle stage: mitosis
  thermal stability score: -0.143
[3]
  solubility in G1/S (log2): -0.000164
